Assays:
[1] = target: T1, RC3H1-N2 (RING+ROQ+CCCH Zn finger) (Homo sapiens, UniProt Q5TC82 2-452); assay: EMSA; EMSA: 20 mM Tris-HCl pH 7.5, 50 mM KCl, 5 mM MgCl2, 20 uM ZnSO4, 10% glycerol, 2 mM DTT, 0.05 mg/ml BSA, 5 ug/ml heparin; 50 fmol RNA in 20 ul, room temperature
T1 sequence: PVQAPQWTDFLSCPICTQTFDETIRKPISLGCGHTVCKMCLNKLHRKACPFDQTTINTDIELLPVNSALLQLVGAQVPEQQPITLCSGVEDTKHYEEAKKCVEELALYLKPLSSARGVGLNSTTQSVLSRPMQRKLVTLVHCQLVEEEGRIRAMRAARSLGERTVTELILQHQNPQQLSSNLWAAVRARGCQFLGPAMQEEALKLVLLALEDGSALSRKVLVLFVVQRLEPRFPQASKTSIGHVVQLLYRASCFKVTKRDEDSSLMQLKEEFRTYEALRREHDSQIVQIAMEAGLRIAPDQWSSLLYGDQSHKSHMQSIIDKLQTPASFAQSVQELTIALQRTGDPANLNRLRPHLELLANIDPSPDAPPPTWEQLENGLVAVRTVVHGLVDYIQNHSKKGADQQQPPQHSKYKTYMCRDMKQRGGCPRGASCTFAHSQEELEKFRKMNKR

[2] = target: T1, RC3H1-N2 (RING+ROQ+CCCH Zn finger); assay: EMSA; virtually unaffected vs WT; EMSA: 20 mM Tris-HCl pH 7.5, 50 mM KCl, 5 mM MgCl2, 20 uM ZnSO4, 10% glycerol, 2 mM DTT, 0.05 mg/ml BSA, 5 ug/ml heparin; 50 fmol RNA in 20 ul, room temperature
[3] = target: T1, RC3H1-N2 (RING+ROQ+CCCH Zn finger); assay: EMSA; complex formation seemed independent of the Zn finger; EMSA: 20 mM Tris-HCl pH 7.5, 50 mM KCl, 5 mM MgCl2, 20 uM ZnSO4, 10% glycerol, 2 mM DTT, 0.05 mg/ml BSA, 5 ug/ml heparin; 50 fmol RNA in 20 ul, room temperature
[4] = target: T2, RC3H1-N1 (RING+ROQ) (Homo sapiens, UniProt Q5TC82 2-399); assay: EMSA; EMSA: 20 mM Tris-HCl pH 7.5, 50 mM KCl, 5 mM MgCl2, 20 uM ZnSO4, 10% glycerol, 2 mM DTT, 0.05 mg/ml BSA, 5 ug/ml heparin; 50 fmol RNA in 20 ul, room temperature
T2 sequence: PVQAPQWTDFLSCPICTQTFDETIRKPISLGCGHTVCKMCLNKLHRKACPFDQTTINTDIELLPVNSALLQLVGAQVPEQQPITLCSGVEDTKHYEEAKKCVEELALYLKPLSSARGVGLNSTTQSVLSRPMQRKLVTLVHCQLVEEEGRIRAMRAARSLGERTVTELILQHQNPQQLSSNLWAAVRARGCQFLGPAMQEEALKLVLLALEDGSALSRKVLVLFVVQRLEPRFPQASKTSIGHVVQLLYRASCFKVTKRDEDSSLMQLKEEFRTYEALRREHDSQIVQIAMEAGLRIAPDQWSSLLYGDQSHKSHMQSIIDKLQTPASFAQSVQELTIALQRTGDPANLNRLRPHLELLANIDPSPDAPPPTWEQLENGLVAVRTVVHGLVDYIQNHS

[5] = target: T1, RC3H1-N2 (RING+ROQ+CCCH Zn finger); assay: EMSA; higher affinity than the 21-nt hairpin; EMSA: 20 mM Tris-HCl pH 7.5, 50 mM KCl, 5 mM MgCl2, 20 uM ZnSO4, 10% glycerol, 2 mM DTT, 0.05 mg/ml BSA, 5 ug/ml heparin; 50 fmol RNA in 20 ul, room temperature

Q: Does CCUCCCCCCCUGCCCCCCAGC (ssRNA) [Mut3 (21 nt) control] bind [1]?
A: Result: no binding

Q: Does CCCUUACAUAAUGUAUGAGGG (structured_RNA) [Mut1 (21 nt)] bind [2]?
A: Result: binds

Q: Does AUUUCUGUGAAAU (structured_RNA) [ICOS (13 nt) CDE-like stem-loop] bind [3]?
A: Result: binds

Q: Does AUUUCUGUGAAAU (structured_RNA) [ICOS (13 nt) CDE-like stem-loop] bind [4]?
A: Result: binds

Q: Does AUAUAUAAUAUACCCUUACAUUAUGUAUGAGGGAUUU (structured_RNA) [A20 (37 nt) ARE-stem-loop] bind [5]?
A: Result: binds

Q: Does CCCUUACAUUAUGUAUGAGGG (structured_RNA) [A20 (21 nt) stem-loop WT] bind [1]?
A: Result: binds

Reference: PMC4510711
